According to patent US20180291110A1 (Hoffmann-La Roche, published 2018):
Residue numbers refer to the chain shown, from its start. Where two headings read alike, the source gives them in different places.

How the values were obtained:
[1] = target: T1, Her2 ECD (amino acids 1 to 629 of matured HER2 with C-terminal avi-tag and His-tag) (human, UniProt P04626 23-652); assay: SPR, Ab captured, Her2 analyte
T1 construct: also called purified Her2

[2] = target: T1, Her2 ECD (amino acids 1 to 629 of …); assay: SPR, Ab captured, Her2 analyte; remark: listed apart in the source
[3] = target: T1, Her2 ECD (amino acids 1 to 629 of …); assay: SPR, Ab captured, Her2 analyte; remark: listed apart in the source
[4] = target: T2, human transferrin receptor (recombinant, for surface plasmon resonance) (human, UniProt P02786 89-760); assay: SPR
T2 construct: also called huTfR; human transferrin receptor-biotinylated
T2 sequence (P02786 89-760 limits assumed): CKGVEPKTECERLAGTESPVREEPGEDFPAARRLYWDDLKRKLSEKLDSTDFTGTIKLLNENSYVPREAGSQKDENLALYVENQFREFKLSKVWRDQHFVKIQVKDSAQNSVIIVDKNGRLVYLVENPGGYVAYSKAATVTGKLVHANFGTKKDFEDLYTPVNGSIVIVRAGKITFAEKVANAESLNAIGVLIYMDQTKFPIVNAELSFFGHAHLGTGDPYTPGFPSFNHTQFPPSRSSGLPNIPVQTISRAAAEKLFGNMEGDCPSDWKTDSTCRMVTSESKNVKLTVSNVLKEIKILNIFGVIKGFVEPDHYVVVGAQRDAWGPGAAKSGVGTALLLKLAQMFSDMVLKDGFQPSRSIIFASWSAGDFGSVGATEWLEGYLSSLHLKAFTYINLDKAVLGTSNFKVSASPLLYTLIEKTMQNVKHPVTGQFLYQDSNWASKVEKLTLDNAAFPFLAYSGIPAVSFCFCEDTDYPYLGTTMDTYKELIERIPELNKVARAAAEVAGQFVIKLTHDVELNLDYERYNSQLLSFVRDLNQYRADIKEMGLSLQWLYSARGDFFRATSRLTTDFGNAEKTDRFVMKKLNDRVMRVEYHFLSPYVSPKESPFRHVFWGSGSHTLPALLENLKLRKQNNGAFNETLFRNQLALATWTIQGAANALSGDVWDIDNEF

B1: Pertuzumab HC x Pertuzumab (Tras.L3) LC (antibody, V domains shown)
VH: EVQLVESGGGLVQPGGSLRLSCAASGFTFTDYTMDWVRQAPGKGLEWVADVNPNSGGSIYNQRFKGRFTLSVDRSKNTLYLQMNSLRAEDTAVYYCARNLGPSFYFDYWGQGTLVTVSS
VL: DIQMTQSPSSLSASVGDRVTITCKASQDVSIGVAWYQQKPGKAPKLLIYSASYRYTGVPSRFSGSGSGTDFTLTISSLQPEDFATYYCQQHYTTPPTFGQGTKVEIK
notes: human IgG
What does the source list for B1?
Kd [1]: 4.96 nM; koff [1]: 0.00209 s⁻¹; kon [1]: 422000 M⁻¹ s⁻¹; Kd [2]: 26.7 nM; koff [2]: 0.00173 s⁻¹; kon [2]: 64700 M⁻¹ s⁻¹

B2: Trastuzumab HC x Pertuzumab (Tras.L3) LC (antibody, V domains shown)
VH: not shown
VL: B1 VL
notes: human IgG
Which Kd [1] does the source give for B2 here?
Its Kd is 72.5 nM.

And the koff [1]?
The koff was 0.0236 s⁻¹.

What about the kon [1] of the same binder?
Its kon is 325000 M⁻¹ s⁻¹.

And the Kd [2]?
The Kd was 1090 nM.

What about the koff [2] of the same binder?
The koff was 0.05 s⁻¹.

And the kon [2]?
The kon was 41900 M⁻¹ s⁻¹.

B3: Trastuzumab HC x Pertuzumab (Tras.L3)(QM) LC (antibody, V domains shown)
VH: not shown
VL: B1 VL with I31T, G32A, Y53F, G66R
How did the Kd [3] turn out when B3 was run?
The Kd was 0.202 nM.

And the koff [3]?
The koff was 5.42e-05 s⁻¹.

And the kon [3]?
The kon was 269000 M⁻¹ s⁻¹.

B4: 4/94 SEQ ID NO 194 / murine VL (antibody, V domains shown)
VH: QVQLVQSGAEVKKPGASVKVSCKASGFNIKDTYIHWVIQAPGQGLEWMGRIDPANGDTKSDPKFQVRVTITADTSTSTVYMELSSLRSEDTAVYYCVRDYLYPYYFDFWGQGTTVTVSS
VL: KIVMTQSPKSMSMSVGERVTLNCRASESVDTYVSWYQQKPEQSPELLIYGASNRYTGVPDRFTGSGSATDFTLTISSVQAEDLADYYCGQTYNYPLTFGAGTKLELKR
With B4 as the binder, how does the koff [4] read?
The koff was 0.00037 s⁻¹.

B5: 4/94 SEQ ID NO 195 / murine VL (antibody, V domains shown)
VH: B4 VH with D61A
VL: B4 VL
With B5 as the binder, how does the koff [4] read?
Its koff is 0.000364 s⁻¹.

B6: 4/94 SEQ ID NO 197 / murine VL (antibody, V domains shown)
VH: B4 VH with A16S, V66G, T74E, V79A
VL: B4 VL
How did the koff [4] turn out when B6 was run?
The koff was 0.000542 s⁻¹.

B7: 4/94 SEQ ID NO 198 / murine VL (antibody, V domains shown)
VH: B4 VH with A16S, A40R, V66G, T74E, V79A
VL: B4 VL
B7 was tested. Which koff [4] did it give?
The koff was 0.000544 s⁻¹.

B8: 4/94 SEQ ID NO 196 / SEQ ID NO 201 (antibody, V domains shown)
VH: B4 VH with V66G
VL: KIQMTQSPSSLSASVGDRVTITCRASESVDTYVSWYQQKPGKAPKLLIYGASNRYTGVPSRFSGSGSGTDFTLTISSLQPEDFADYYCGQTYNYPLTFGQGTKLEI
B8 was tested. Which koff [4] did it give?
Its koff is 0.000386 s⁻¹.

B9: 4/94 SEQ ID NO 194 / SEQ ID NO 201 (antibody, V domains shown)
VH: B4 VH
VL: B8 VL
B9 was tested. Which koff [4] did it give?
The koff was 0.00041 s⁻¹.

B10: 4/94 SEQ ID NO 195 / SEQ ID NO 201 (antibody, V domains shown)
VH: B4 VH with D61A
VL: B8 VL
Which koff [4] does the source give for B10 here?
The koff was 0.000399 s⁻¹.

B11: 4/94 SEQ ID NO 197 / SEQ ID NO 201 (antibody, V domains shown)
VH: B4 VH with A16S, V66G, T74E, V79A
VL: B8 VL
With B11 as the binder, how does the koff [4] read?
The koff was 0.000657 s⁻¹.

B12: 4/94 SEQ ID NO 198 / SEQ ID NO 201 (antibody, V domains shown)
VH: B4 VH with A16S, A40R, V66G, T74E, V79A
VL: B8 VL
For B12, which koff [4] is on record?
Its koff is 0.000684 s⁻¹.

B13: 4/94 SEQ ID NO 196 / SEQ ID NO 207 (antibody, V domains shown)
VH: B4 VH with V66G
VL: KIVLTQSPGTLSLSPGERATLSCRASESVDTYVSWYQQKPGQAPRLLIYGASNRYTGVPDRFSGSGSGTDFTLTISRLEPEDFADYYCGQTYNYPLTFGQGTKLEI
How did the koff [4] turn out when B13 was run?
Its koff is 0.00043 s⁻¹.

B14: 4/94 SEQ ID NO 194 / SEQ ID NO 207 (antibody, V domains shown)
VH: B4 VH
VL: B13 VL
With B14 as the binder, how does the koff [4] read?
Its koff is 0.000454 s⁻¹.

B15: 4/94 SEQ ID NO 194 / SEQ ID NO 208 (antibody, V domains shown)
VH: B4 VH
VL: B13 VL with K1E
Which koff [4] does the source give for B15 here?
Its koff is 0.000476 s⁻¹.

B16: 4/94 SEQ ID NO 194 / SEQ ID NO 209 (antibody, V domains shown)
VH: B4 VH
VL: B13 VL with V58I
For B16, which koff [4] is on record?
The koff was 0.000448 s⁻¹.

B17: 4/94 SEQ ID NO 195 / SEQ ID NO 207 (antibody, V domains shown)
VH: B4 VH with D61A
VL: B13 VL
With B17 as the binder, how does the koff [4] read?
Its koff is 0.000426 s⁻¹.

B18: 4/94 SEQ ID NO 195 / SEQ ID NO 208 (antibody, V domains shown)
VH: B4 VH with D61A
VL: B13 VL with K1E
For B18, which koff [4] is on record?
Its koff is 0.000415 s⁻¹.

B19: 4/94 SEQ ID NO 195 / SEQ ID NO 209 (antibody, V domains shown)
VH: B4 VH with D61A
VL: B13 VL with V58I
Which koff [4] does the source give for B19 here?
The koff was 0.000438 s⁻¹.

B20: 4/94 SEQ ID NO 196 / SEQ ID NO 208 (antibody, V domains shown)
VH: B4 VH with V66G
VL: B13 VL with K1E
How did the koff [4] turn out when B20 was run?
Its koff is 0.000434 s⁻¹.

B21: 4/94 SEQ ID NO 196 / SEQ ID NO 209 (antibody, V domains shown)
VH: B4 VH with V66G
VL: B13 VL with V58I
B21 was tested. Which koff [4] did it give?
Its koff is 0.000452 s⁻¹.

B22: 4/94 SEQ ID NO 197 / SEQ ID NO 207 (antibody, V domains shown)
VH: B4 VH with A16S, V66G, T74E, V79A
VL: B13 VL
How did the koff [4] turn out when B22 was run?
Its koff is 0.000703 s⁻¹.

B23: 4/94 SEQ ID NO 197 / SEQ ID NO 208 (antibody, V domains shown)
VH: B4 VH with A16S, V66G, T74E, V79A
VL: B13 VL with K1E
For B23, which koff [4] is on record?
The koff was 0.000683 s⁻¹.

B24: 4/94 SEQ ID NO 197 / SEQ ID NO 209 (antibody, V domains shown)
VH: B4 VH with A16S, V66G, T74E, V79A
VL: B13 VL with V58I
How did the koff [4] turn out when B24 was run?
The koff was 0.000705 s⁻¹.

B25: 4/94 SEQ ID NO 198 / SEQ ID NO 207 (antibody, V domains shown)
VH: B4 VH with A16S, A40R, V66G, T74E, V79A
VL: B13 VL
With B25 as the binder, how does the koff [4] read?
Its koff is 0.000717 s⁻¹.

B26: 4/94 SEQ ID NO 198 / SEQ ID NO 208 (antibody, V domains shown)
VH: B4 VH with A16S, A40R, V66G, T74E, V79A
VL: B13 VL with K1E
B26 was tested. Which koff [4] did it give?
The koff was 0.000717 s⁻¹.

B27: 4/94 SEQ ID NO 198 / SEQ ID NO 209 (antibody, V domains shown)
VH: B4 VH with A16S, A40R, V66G, T74E, V79A
VL: B13 VL with V58I
Which koff [4] does the source give for B27 here?
The koff was 0.000728 s⁻¹.

B28: 4/94 SEQ ID NO 199 / murine VL (antibody, V domains shown)
VH: QVQLQESGPGLVKPSETLSLTCTVSGFNIKDTYIHWVIQRPGKGLEWIGRIDPANGDTKSDPSLQSRVTISADTSKNQASLKLSSVTAADTAVYYCVRDYLYPYYFDFWGQGTTVTVSS
VL: B4 VL
How did the koff [4] turn out when B28 was run?
Its koff is 0.000381 s⁻¹.

B29: 4/94 SEQ ID NO 199 / SEQ ID NO 201 (antibody, V domains shown)
VH: B28 VH
VL: B8 VL
With B29 as the binder, how does the koff [4] read?
Its koff is 0.000486 s⁻¹.

B30: 4/94 SEQ ID NO 199 / SEQ ID NO 207 (antibody, V domains shown)
VH: B28 VH
VL: B13 VL
For B30, which koff [4] is on record?
The koff was 0.000527 s⁻¹.

B31: 4/94 SEQ ID NO 199 / SEQ ID NO 208 (antibody, V domains shown)
VH: B28 VH
VL: B13 VL with K1E
Which koff [4] does the source give for B31 here?
The koff was 0.00055 s⁻¹.

B32: 4/94 SEQ ID NO 199 / SEQ ID NO 209 (antibody, V domains shown)
VH: B28 VH
VL: B13 VL with V58I
Which koff [4] does the source give for B32 here?
Its koff is 0.000552 s⁻¹.

B33: 4/94 SEQ ID NO 200 / murine VL (antibody, V domains shown)
VH: EVQLVESGGGLVQPGGSLRLSCAASGFNIKDTYIHWVIQAPGKGLEWVGRIDPANGDTKSDPSVQVRATISADTSKNTAYLQMNSLRAEDTAVYYCVRDYLYPYYFDFWGQGTTVTVSS
VL: B4 VL
How did the koff [4] turn out when B33 was run?
Its koff is 0.000232 s⁻¹.

B34: 4/94 SEQ ID NO 200 / SEQ ID NO 201 (antibody, V domains shown)
VH: B33 VH
VL: B8 VL
How did the koff [4] turn out when B34 was run?
The koff was 0.000274 s⁻¹.

B35: 4/94 SEQ ID NO 200 / SEQ ID NO 207 (antibody, V domains shown)
VH: B33 VH
VL: B13 VL
For B35, which koff [4] is on record?
Its koff is 0.000299 s⁻¹.

B36: 4/94 SEQ ID NO 200 / SEQ ID NO 208 (antibody, V domains shown)
VH: B33 VH
VL: B13 VL with K1E
B36 was tested. Which koff [4] did it give?
Its koff is 0.000306 s⁻¹.

B37: 4/94 SEQ ID NO 200 / SEQ ID NO 209 (antibody, V domains shown)
VH: B33 VH
VL: B13 VL with V58I
Which koff [4] does the source give for B37 here?
Its koff is 0.000326 s⁻¹.
